From US20040235710A1, “Pre-mixes of glp-1 and basal insulin” (published 2004)

What follows are molecules tested against T1, human GLP-1 receptor (human, UniProt P43220) (assay: cell-based or functional assay).

First: HVEGTFTSDWSSYLEEQAVKEFIAWLIKGRG [Val^8-Trp^16-Glu^22-Val^25-Ile^33-GLP-1(7-37)OH]
Second: HVEGTFTSDYSSYLEGQAAKEFIAWLVKGRG [Val^8-Tyr^16-GLP-1(7-37)OH]
The “GLP-1 receptor activation relative to Val^8-GLP-1(7-37)OH” value of the first is higher: 5 relative potency for the first, 2.5 relative potency for the second.

Compared with HVEGTFTSDVSSWLEEQAAKEFIAWLVKGRG [Val^8-Trp^19-Glu^22-GLP-1(7-37)OH], HVEGTFTSDVSSYFEEQAAKEFIAWLVKGRG [Val^8-Phe^20-Glu^22-GLP-1(7-37)OH] is lower in “GLP-1 receptor activation relative to Val^8-GLP-1(7-37)OH” value: 3.2 relative potency for the first, 2.7 relative potency for the second.

Compared with HVEGTFTSDLSSYLEEQAAKEFIAWLVKGRG [Val^8-Leu^16-Glu^22-GLP-1(7-37)OH], HVEGTFTSDWSSYLEEQAAKEFIAWLIKGRG [Val^8-Trp^16-Glu^22-Ile^33-GLP-1(7-37)OH] is lower in “GLP-1 receptor activation relative to Val^8-GLP-1(7-37)OH” value: 4.3 relative potency for the first, 4.1 relative potency for the second.

Compared with HVEGTFTSDVSKYLEEQAAKEFIAWLVKGRG [Val^8-Lys^18-Glu^22-GLP-1(7-37)OH], HVDGIFTSDYSSYLEEQAAKEFIAWLVKGRG [Val^8-Asp^9-Ile^11-Tyr^16-Glu^22-GLP-1(7-37)OH] is higher in “GLP-1 receptor activation relative to Val^8-GLP-1(7-37)OH” value: 2.5 relative potency for the first, 4.3 relative potency for the second.

Going from HVEGTFTSDVSSYLEEQAAKIFIAWLVKGRG [Val^8-Glu^22-Ile^27-GLP-1(7-37)OH] to HVEGTFTSDFSSYLEEQAAKEFIAWLVKGRG [Val^8-Phe^16-Glu^22-GLP-1(7-37)OH], the “GLP-1 receptor activation relative to Val^8-GLP-1(7-37)OH” value rises from 2 relative potency to 2.3 relative potency.

Compared with HVEGTWTSDVSSYLEEQAAKEFIAWLVKGRG [Val^8-Trp^12-Glu^22-GLP-1(7-37)OH], HVEGTFTSDVSSFLEEQAAKEFIAWLVKGRG [Val^8-Phe^19-Glu^22-GLP-1(7-37)OH] is lower in “GLP-1 receptor activation relative to Val^8-GLP-1(7-37)OH” value: 1.7 relative potency for the first, 1.5 relative potency for the second.

First: HVEGTFTSDYSSWLEEQAAKEFIAWLVKGRG [Val^8-Tyr^16-Trp^19-Glu^22-GLP-1(7-37)OH]
Second: HVEGTYTSDVSSYLEGQAAKEFIAWLVKGRG [Val^8-Tyr^12-GLP-1(7-37)OH]
The “GLP-1 receptor activation relative to Val^8-GLP-1(7-37)OH” value of the first is higher: 3.5 relative potency for the first, 1.7 relative potency for the second.

Going from HVEGTFTSDVSFYLEEQAAKEFIAWLVKGRG [Val^8-Phe^18-Glu^22-GLP-1(7-37)OH] to HVEGTFTSDVSSYLEEQALKEFIAWLVKGRG [Val^8-Glu^22-Leu^25-GLP-1(7-37)OH], the “GLP-1 receptor activation relative to Val^8-GLP-1(7-37)OH” value rises from 2 relative potency to 2.8 relative potency.

Going from HVEGTYTSDVSSYLEEQAAKEFIAWLVKGRG [Val^8-Tyr^12-Glu^22-GLP-1(7-37)OH] to HVEGTFTSDVSIYLEEQAAKEFIAWLVKGRG [Val^8-Ile^18-Glu^22-GLP-1(7-37)OH], the “GLP-1 receptor activation relative to Val^8-GLP-1(7-37)OH” value rises from 2.7 relative potency to 4 relative potency.

First: HVEGTFTSDYSSFLEGQAAKEFIAWLVKGRG [Val^8-Tyr^16-Phe^19-GLP-1(7-37)OH]
Second: HVEGTFTSDVSSYLEEQAIKEFIAWLVKGRG [Val^8-Glu^22-Ile^25-GLP-1(7-37)OH]
The “GLP-1 receptor activation relative to Val^8-GLP-1(7-37)OH” value of the first is lower: 2.8 relative potency for the first, 3.1 relative potency for the second.

With HVEGTFTSDISSYLEEQAAKEFIAWLVKGRG [Val^8-Ile^16-Glu^22-GLP-1(7-37)OH] the “GLP-1 receptor activation relative to Val^8-GLP-1(7-37)OH” value was 3.3 relative potency.

These molecules were tested against T1, human GLP-1 receptor (assay: not given).

Going from “Val^8-Cys^16-Lys^26-Arg^34-GLP-1(7-37)OH (peptide)” to “Val^8-Cys^16-Lys^26-GLP-1(7-37)OH (peptide)”, the GLP-1 receptor activation relative to Val^8-GLP-1(7-37)OH (relative potency) rises from 1.9 to 4.2.

Work on Val^8-Val^16-GLP-1(7-37)OH (peptide) yielded a GLP-1 receptor activation relative to Val^8-GLP-1(7-37)OH (relative potency) of 1.1.

Molecular target: T1, human GLP-1 receptor
Assay: cell-based or functional assay
Remark: another data set of the same source

Going from HVEGTFTSDYSSYLEGQAAKEFIAWLVKGRG [Val^8-Tyr^16-GLP-1(7-37)OH] to HVEGTYTSDVSSYLEGQAAKEFIAWLVKGRG [Val^8-Tyr^12-GLP-1(7-37)OH], the “GLP-1 Receptor Activation (relative to GLP-1(7-37)OH)” value falls from 1.18 relative potency to 0.81 relative potency.
